The Human Domainome abundance scans (Beltran et al. 2025)
± gives the uncertainty stated by the source.

B1: POU domain, class 4, transcription factor 1, residues 266 to 347; numbered along this chain, Q01851 (parent)
chain: RELEAFAERFKQRRIKLGVTQADVGSALANLKIPGVGSLSQSTICRFESLTLSHNNMIALKPILQAWLEEAEGAQREKMNKP

Variants of: B1
Test: abundance fitness (aPCA) (normalised: wild type 0, dead -1); higher = more abundant; growth selection in yeast, the domain comes from the species named
Conditions: Homo sapiens

Abundance fitness, by site and new letter:
T20: L -0.078 ± 0.19, C 0.008 ± 0.36, I -0.725 ± 0.21, E -0.124 ± 0.094, V -0.567 ± 0.28, R -0.087 ± 0.1, S -0.117 ± 0.19, A -0.052 ± 0.14, N -0.261 ± 0.44
S26: T -0.095 ± 0.06, W 0.024 ± 0.055, D 0.057 ± 0.068, M -0.049 ± 0.082, Y 0.126 ± 0.1, C -0.03 ± 0.064, N 0.285 ± 0.2, H -0.005 ± 0.13, G -0.032 ± 0.039, Q 0.086 ± 0.087, L -0.016 ± 0.05, F -0.008 ± 0.078, K -0.029 ± 0.062, P -0.221 ± 0.081, R -0.004 ± 0.039, V -0.049 ± 0.044, A 0.011 ± 0.045
L31: H -0.014 ± 0.058, K 0.038 ± 0.039, G -0.223 ± 0.024, S -0.066 ± 0.031, C -0.057 ± 0.037, D -0.152 ± 0.046, P -0.26 ± 0.045, Q -0.04 ± 0.038, M 0.003 ± 0.035, T 0.051 ± 0.035, N -0.168 ± 0.061, V -0.006 ± 0.025, A -0.059 ± 0.029, I -0.028 ± 0.052, R -0.005 ± 0.024
V24: P -1.06 ± 0.23, L -0.062 ± 0.049, F -0.337 ± 0.14, N -0.531 ± 0.27, H -0.815 ± 0.37, T -0.544 ± 0.096, A -0.241 ± 0.055, S -0.688 ± 0.1, M -0.253 ± 0.079, E -0.679 ± 0.088, D -0.66 ± 0.16, R -0.745 ± 0.074, C -0.326 ± 0.1
P34: M -0.163 ± 0.041, K -0.065 ± 0.043, T -0.011 ± 0.039, E 0.027 ± 0.033, L -0.186 ± 0.036, N -0.133 ± 0.063, W -0.322 ± 0.041, F -0.097 ± 0.065, Y -0.387 ± 0.082, G -0.088 ± 0.024, Q -0.027 ± 0.039, A 0 ± 0.029, I -0.197 ± 0.066, H -0.167 ± 0.063
K16: P -0.888 ± 0.053, A 0.085 ± 0.034, L -0.071 ± 0.025, S 0.013 ± 0.027, C -0.004 ± 0.055, W -0.177 ± 0.05, D 0.029 ± 0.049, N 0.011 ± 0.035, Y -0.129 ± 0.037, E 0.063 ± 0.048, H -0.029 ± 0.034, F -0.138 ± 0.039, I -0.104 ± 0.037, T -0.032 ± 0.028, Q 0.027 ± 0.032, R 0.035 ± 0.034
R14: A -0.919 ± 0.071, L -0.768 ± 0.045, Q -1.08 ± 0.12, H -1.16 ± 0.14, I -0.866 ± 0.082, N -0.923 ± 0.12, V -0.932 ± 0.062, M -0.914 ± 0.092, G -1.07 ± 0.081, S -0.906 ± 0.059, K -1.09 ± 0.14, Y -0.884 ± 0.098, P -1.13 ± 0.12, W -1.02 ± 0.098, F -1.07 ± 0.12, D -0.952 ± 0.18
D23: L -0.281 ± 0.06, Q 0.016 ± 0.063, P -0.913 ± 0.44, W -0.405 ± 0.098, F -0.208 ± 0.12, N -0.067 ± 0.14, A -0.009 ± 0.066, Y -0.115 ± 0.094, E 0.027 ± 0.048, T -0.118 ± 0.066, M -0.022 ± 0.1, S -0.027 ± 0.049, H -0.156 ± 0.1, R -0.173 ± 0.049, V -0.152 ± 0.05, C -0.185 ± 0.098, G -0.067 ± 0.045
G18: D -0.394 ± 0.12, E -0.332 ± 0.13, C -0.475 ± 0.32, F -0.663 ± 0.32, T -0.91 ± 0.49, A -0.268 ± 0.17, K -0.167 ± 0.21, S -0.241 ± 0.1, L -0.724 ± 0.46, M -0.639 ± 0.48, R -0.231 ± 0.15
R13: W -0.321 ± 0.05, N -0.156 ± 0.062, T 0.008 ± 0.042, S 0.014 ± 0.038, P -1.06 ± 0.2, M -0.023 ± 0.057, Q -0.053 ± 0.05, V -0.065 ± 0.035
Q21: W -0.141 ± 0.063, N -0.516 ± 0.38, S -0.09 ± 0.058, I 0.022 ± 0.075, T -0.072 ± 0.055, R -0.058 ± 0.041, V -0.083 ± 0.046, Y -0.07 ± 0.1, H 0.006 ± 0.1, F -0.072 ± 0.24, E -0.023 ± 0.049, K 0.062 ± 0.092, A -0.044 ± 0.046, C -0.083 ± 0.064, M -0.111 ± 0.072, P -0.045 ± 0.065
L28: Y -0.439 ± 0.066, C -0.042 ± 0.039, N -0.459 ± 0.071, K -0.601 ± 0.047, M -0.09 ± 0.037, E -0.782 ± 0.048, H -0.332 ± 0.061, W -0.555 ± 0.033, D -0.624 ± 0.065, A -0.422 ± 0.032, Q -0.628 ± 0.052, V -0.074 ± 0.025, F -0.129 ± 0.045, T -0.312 ± 0.042, S -0.639 ± 0.043
I15: A -0.099 ± 0.038, H -0.083 ± 0.037, G -0.286 ± 0.055, R -0.037 ± 0.036, V -0.023 ± 0.035, Y -0.332 ± 0.046, E 0.02 ± 0.054, F -0.322 ± 0.039, W -0.243 ± 0.048, P -0.989 ± 0.084, Q -0.013 ± 0.038, M 0.005 ± 0.038, N -0.113 ± 0.04, D -0.211 ± 0.06, L -0.022 ± 0.028, C -0.048 ± 0.049, S -0.138 ± 0.029
V19: T -0.125 ± 0.068, H -0.14 ± 0.11, C -0.104 ± 0.1, Q 0.11 ± 0.076, K 0.003 ± 0.061, S -0.062 ± 0.062, Y -0.027 ± 0.086, E -0.396 ± 0.081, W -0.016 ± 0.057, D -0.308 ± 0.14, M 0.096 ± 0.067, I -0.012 ± 0.078, L -0.016 ± 0.049, P -0.827 ± 0.25, R -0.019 ± 0.037, G -0.55 ± 0.061
N30: W -0.144 ± 0.064, G -0.009 ± 0.041, L -0.084 ± 0.088, P 0.06 ± 0.1, K 0.113 ± 0.088, V -0.233 ± 0.061, R -0.063 ± 0.054, A 0.028 ± 0.059, M -0.104 ± 0.09, F 0.037 ± 0.13, H 0.054 ± 0.15, C -0.337 ± 0.17, T -0.046 ± 0.077, Q 0.026 ± 0.071, I 0.054 ± 0.13, E -0.043 ± 0.072, Y 0.033 ± 0.34, S 0.091 ± 0.08
A22: H 0.01 ± 0.14, P 0.13 ± 0.28, E 0.043 ± 0.098, W -0.038 ± 0.084, D -0.121 ± 0.15, M -0.237 ± 0.16, I -0.218 ± 0.24, V -0.242 ± 0.095, N 0.11 ± 0.33, T -0.068 ± 0.1, Y 0.043 ± 0.12, C -0.098 ± 0.27, G -0.017 ± 0.056
I33: Q -0.295 ± 0.04, E -0.22 ± 0.033, H -0.147 ± 0.06, N -0.219 ± 0.052, G -0.282 ± 0.025, S -0.23 ± 0.034, A -0.139 ± 0.03, F -0.091 ± 0.048, M -0.056 ± 0.036, W -0.114 ± 0.03, L 0.024 ± 0.028, Y -0.21 ± 0.053, C -0.005 ± 0.039, K -0.203 ± 0.042, D -0.262 ± 0.054, T -0.145 ± 0.039, R -0.217 ± 0.026, V 0.05 ± 0.027
G35: I 0.268 ± 0.49, D -0.142 ± 0.24, A -0.397 ± 0.26, F 0.122 ± 0.37
A29: K 0.02 ± 0.14, R 0.083 ± 0.087, I -0.019 ± 0.13, V 0.088 ± 0.35, L -0.092 ± 0.13, C 0.128 ± 0.36, W -0.605 ± 0.5, P -0.184 ± 0.16, G 0.132 ± 0.1, E 0.036 ± 0.11
G25: T -0.012 ± 0.076, Y -0.058 ± 0.087, L -0.038 ± 0.048, M -0.009 ± 0.07, Q -0.001 ± 0.065, V 0.068 ± 0.04, C 0.025 ± 0.066, F -0.119 ± 0.14, K 0.009 ± 0.083, H 0.122 ± 0.16, E 0.05 ± 0.054, D 0.037 ± 0.093, S 0.001 ± 0.047, W -0.007 ± 0.055, N -0.117 ± 0.17, A 0.04 ± 0.047
L17: I -0.126 ± 0.045, C -0.31 ± 0.041, W -0.336 ± 0.044, G -0.802 ± 0.082, F -0.309 ± 0.039, M -0.072 ± 0.037, H -0.54 ± 0.047, P -1.06 ± 0.08, K -0.62 ± 0.052, V -0.286 ± 0.036, R -0.664 ± 0.046, T -0.779 ± 0.058, S -0.608 ± 0.035, Y -0.33 ± 0.038, E -0.804 ± 0.075, N -0.455 ± 0.05, Q -0.668 ± 0.052, A -0.346 ± 0.038
K32: Q -0.022 ± 0.11, M 0.018 ± 0.089, R -0.058 ± 0.054, N -0.076 ± 0.27, G -0.101 ± 0.054, T 0.025 ± 0.076, E 0.016 ± 0.13, F 0.031 ± 0.26, L -0.105 ± 0.064, S 0.106 ± 0.096, A -0.003 ± 0.078, D 0.022 ± 0.17, V -0.009 ± 0.059, C -0.116 ± 0.094, P -0.204 ± 0.13, W -0.176 ± 0.071, I -0.165 ± 0.21, Y -0.281 ± 0.14
A27: Q -0.046 ± 0.058, R -0.081 ± 0.036, Y -0.041 ± 0.19, W -0.088 ± 0.04, K -0.058 ± 0.062, I -0.245 ± 0.17, C 0.01 ± 0.076, G -0.153 ± 0.038, S -0.023 ± 0.058, P -1.23 ± 0.27, L -0.288 ± 0.06, T -0.069 ± 0.07, D -0.043 ± 0.081, H -0.07 ± 0.12, V -0.16 ± 0.04, F -0.284 ± 0.16, M -0.175 ± 0.11, N -0.071 ± 0.12, E -0.035 ± 0.049
